Target: peptide on cattle MR1 (cattle)
Assay: data from (80); method not given; cattle MR1 without riboflavin-based antigen

A-F7 MAIT TCR was tested, and the Kd was 30 µM.
